Columns and labels:
human BTLA (human) [1] = target: human BTLA (human) (UniProt Q7Z6A9); test: flow cytometry; row 1*10^5; Anti-mouse IgGFc-Alexa Fluor 647(1:500)
canine PD-1 (canine) [2] = test: as above
human BTLA (human) [3] = target: human BTLA (human) (UniProt Q7Z6A9); test: flow cytometry; row 1*10^4; Anti-mouse IgGFc-Alexa Fluor 647(1:500)
canine PD-1 (canine) [4] = test: as above
human BTLA (human) [5] = target: human BTLA (human) (UniProt Q7Z6A9); test: flow cytometry; row 1*10^3; Anti-mouse IgGFc-Alexa Fluor 647(1:500)
canine PD-1 (canine) [6] = test: as above

Sequence of UniProt Q7Z6A9 (Q7Z6A9 31-157 limits assumed): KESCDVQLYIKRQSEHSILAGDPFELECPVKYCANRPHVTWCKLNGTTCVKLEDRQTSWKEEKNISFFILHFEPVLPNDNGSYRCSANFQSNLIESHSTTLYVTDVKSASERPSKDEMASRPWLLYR

percent of cells in the gate (human BTLA (human) [1]): 0.841% | percent of cells in the gate (canine PD-1 (canine) [2]): 0.273% | percent of cells in the gate (human BTLA (human) [3]): 1.2% | percent of cells in the gate (canine PD-1 (canine) [4]): 0.068% | percent of cells in the gate (human BTLA (human) [5]): 0.406% | percent of cells in the gate (canine PD-1 (canine) [6]): 0.155%
Substance: NC

Reference: patent publication US20230064196A1
